The labels stand for the following.
B1: recombinant MBP-RIPK1 RHIM domain (496–583) (domain or fragment)
chain: HMPSLHNIPVPETNYLGNTPTMPFSSLPPTDESIKYTIYNSTGIQIGAYNYMEIGGTSSSLLDSTNTNFKEEPAAKYQAIFDNTTSLT
B2: His-MBP-RIPK3 (388–514) (domain or fragment)
chain: SSDSMAQPPQTPETSTFRNQMPSPTSTGTPSPGPRGNQGAERQGMNWSCRTPEPNPVTGRPLVNIYNCSGVQVGDNNYLTMQQTTALPTWGLAPSGKGRGLQHPPPVGSQEGPKDPEAWSRPQGWYN

The target of the assay “His-MBP-RIPK3 (388–514)” is B2. Put plainly: pull-down.
A further assay has as its target MBP-MYC (1–144) (UniProt P01106-1 1-144). Put plainly: pull-down.

Sequence of MBP-MYC (1–144) (P01106 16-159): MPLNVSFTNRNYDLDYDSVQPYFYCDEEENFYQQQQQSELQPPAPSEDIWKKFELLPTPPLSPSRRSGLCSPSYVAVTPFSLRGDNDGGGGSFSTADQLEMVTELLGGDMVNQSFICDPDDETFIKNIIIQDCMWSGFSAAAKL

For the molecule B1, the binding result in the assay with His-MBP-RIPK3 (388–514) is “binds”. B2: the binding result with MBP-MYC (1–144) is recorded as “binds”.

The values above are taken from article PMC7443878 (Proceedings of the National Academy of Sciences of the …, 2020).
